# Laboratory results published in the RNAGym collection of RNA variant scans (doi:10.1073/pnas.2313332121).
# This sample holds only a part of the variants without activity.
# B1: TPR 5TU (parent)
# chain: GGAUCUUCUCGAUCUAACAAAAAAGACAAAUCUGCCACAAAGCUUGAGAGCAUCUUCGGAUGCAGAGGCGGCAGCCUUCGGUGGCGCGAUAGCGCCAACGUUCUCAACUAUGACACGCAAAACGCGUGCUCCGUUGAAUGGAGUUUAUCAUG
# Variants of: B1
# Assay: polymerase ribozyme fitness, log enrichment relative to wild type (log ratio); higher = more active; in vitro selection for triplet polymerase activity
# Outline: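 Frozen incubation at −7 °C formed the core of a single, triplicate in vitro selection round applied to PCR-built, transcribed mutant libraries of each subunit of a heterodimeric triplet polymerase ribozyme. Extended constructs were gel-excised, captured with streptavidin beads and amplified by RT-PCR, and input and output libraries were Illumina-sequenced with a filter of ≥10 input reads and ≥1 read per output. Fitness is the logarithm of genotype enrichment relative to wild-type enrichment, with inverse-variance-weighted replicate averaging, and the logarithm is base 2.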
row,Variant,polymerase ribozyme fitness (log ratio)
1,C72U C79A C85U,≤ -4.2
2,G70C,-2.92
3,G70U,-1.81
4,G70A,-2.75
5,A73U G81A C118G A120U U135A,-3.75
6,G74C G80C G92U C103G A106U,≤ -4.2
7,C75A C129G U146C,≤ -4.2
8,C69U U102C,-2.59
9,G70A G86U G88U C99G C105G C114G,≤ -4.2
10,G74A C96G,-2.97
11,C72A C93A,≤ -4.2
12,A73G G94U A106G,-0.312
13,G70C G86C,≤ -4.2
14,G70A C93A C123U,≤ -4.2
15,A73G C85A U109G,-2.78
16,A73G C149A,≤ -4.2
17,A73U U148C G152C,≤ -4.2
18,C75G C87U,-3.2
19,A73U C93U A120G,-2.61
20,C72U C75U C87A U90A C95G U102G A150G,≤ -4.2
21,C69U A122U,-1.27
22,C69U C85U U148C,-2.71
23,A73G G86U C105U A106U U144C,-3.89
24,A73G U130C,0.842

row,Variant,polymerase ribozyme fitness (log ratio)
1,A73G A115G G141A,-2.44
2,G70A U82A C87G A89U C103A C105A,≤ -4.2
3,A73C G92U C116G U144C,≤ -4.2
4,G74C C99U,≤ -4.2
5,A73U C116G,-2.81
6,G70A G94U C96G A142C U148A,≤ -4.2
7,G74C C93U G143U,≤ -4.2
8,C72U C85G C99G C114G,≤ -4.2
9,C69G G143C,-4.1
10,C75G C93A C108G C132A G140A G143A,-4.12
11,G71C G83A G117C C129A,≤ -4.2
12,A73G C87U G92U A122U C131A,-4.1
13,G71A C132U,-3.5
14,A73C C87A,≤ -4.2
15,G71A C93U,-2.94
16,C69G G74U A89U A98U,-2.01
17,C72U G86A G100C C131A U135A,≤ -4.2
18,G71A C95U,-3.12
19,G74U C87A C116A U151G,≤ -4.2
20,G71A G84U U101C A142C,≤ -4.2
21,A73G C96G,-0.616
22,G70A C75A C85G G140C,≤ -4.2
23,A73U G141A,-2.24
24,A73G G81A C85U,0.246

row,Variant,polymerase ribozyme fitness (log ratio)
1,C72U U78A G84A,≤ -4.2
2,C72A C103A,≤ -4.2
3,C75G G81U C95A G152U,≤ -4.2
4,C69G A73G,-2.59
5,G74U A107G,≤ -4.2
6,A73G A122C,0.468
7,C72G U146G,≤ -4.2
8,G74A C103G,≤ -4.2
9,G74A G86C G100C C103G C105A U151A,≤ -4.2
10,A73G G88C A107U C129U U139C U148A,≤ -4.2
11,A73G C125U,-0.349
12,G70A C87U,-3.05
13,G70A U77G U78G C87A A97C A122U,≤ -4.2
14,C75G G141C,-4.12
15,C72U U77C C118G,≤ -4.2
16,G70C A98U,-2.78
17,A73G G92C C96A,-2.51
18,G74U G83C G94C,≤ -4.2
19,C75A G86A U104G A106G,≤ -4.2
20,G71U C85U,-1.67
21,C72U U146G,-0.793
22,A73G G84A,-0.268
23,A73G C87G G88C G124C U127G G143C U144A,≤ -4.2
24,C69A U102C,≤ -4.2

row,Variant,polymerase ribozyme fitness (log ratio)
1,C75G C85A C103U A107G A122C,≤ -4.2
2,G74A G92C C149A,≤ -4.2
3,A73U G81A A122U,-0.858
4,C69U G86A,-1.13
5,A73G G83C U145G,-2.01
6,C72U U101C,0.482
7,C75A C79G C93A,-4.11
8,G70A G81U,-3.25
9,C69A U134G,-3.35
10,A73U C79G A107U A113C,≤ -4.2
11,G70A G124C U144C,≤ -4.2
12,C69G C108U U148A,≤ -4.2
13,C72A C103G C118G U148G,≤ -4.2
14,A73U A115G,-2.08
15,C75G C93A,-4.14
16,A73C U127A U144G,≤ -4.2
17,A73G G83C C95G A120C A122G,≤ -4.2
18,G71A G140U U148C,≤ -4.2
19,G70A G86A U90G C93G A110U C114U U134A,≤ -4.2
20,C75G U82G C87U C131G U134A,≤ -4.2
21,G74C U130A,≤ -4.2
22,A73U C75A A98U C114U C125A U135A,≤ -4.2
23,G70A C87A C99A,≤ -4.2
24,C69G A91G,-3.88

row,Variant,polymerase ribozyme fitness (log ratio)
1,A73G A106C G141U,-1.34
2,G71C G86U A91C G133A,≤ -4.2
3,C69U U78G C96G U134A U135C,≤ -4.2
4,C69G G94A U104G,-1.19
5,A73G G88A G124C,≤ -4.2
6,G71U C93U,-3.57
7,A73G C75U U77C A89U G136A C149G,≤ -4.2
8,A73G G94A A97U A120U,-1.74
9,C72U C87A A137C U139A,≤ -4.2
10,G74A A106U A107U G133U,-3.93
11,C75G C76G G92C,≤ -4.2
12,A73U A97U A115G,-3.45
13,A73C C96A,-3.14
14,C72G C96U,-4.02
15,A73G G140A,-2.98
16,C75G G88A A98U C103U,≤ -4.2
17,C75G C87G C93U C103G,≤ -4.2
18,G71C C87U,-3.34
19,A73G A137C U145G,-3.74
20,C75G G86U C95U C99U,≤ -4.2
21,C72G U127C G143U U144G,≤ -4.2
22,C75G,-3.24
23,C75A,-3.85
24,A73G C85U,-0.115

row,Variant,polymerase ribozyme fitness (log ratio)
1,A73U G80A U134C,-1.91
2,G71A G92U,-2.6
3,G74A A91C A147U U148C,≤ -4.2
4,A73G U144C,0.137
5,A73G U144G,1.28
6,G71C C79U A91C U135G,≤ -4.2
7,A73U C96G A98U A120U A137G,-2.92
8,C72A A147C,≤ -4.2
9,G71C C87G G128A,≤ -4.2
10,A73G C75U C99A U101G A142G,≤ -4.2
11,G71U G80C C93U A97U C132A,≤ -4.2
12,C69U C95U U101G G152C,-3.5
13,C75G G81A A122G,≤ -4.2
14,G74A U90C G94A A98U,≤ -4.2
15,C69U G126C,-0.197
16,G71C G94A,-3.93
17,C75A A137C A150U,≤ -4.2
18,G70C C87A G140C,≤ -4.2
19,A73G C93U,-1.28
20,A73G C93G,-2.73
21,C69U C93A C103U C116A U148G,≤ -4.2
22,A73U U144C,-1.49
23,A73G A120G,0.0734
24,C72U A89C C95U C105U,-1.12

row,Variant,polymerase ribozyme fitness (log ratio)
1,C69U A97G G141A,-0.875
2,G74A G84C C95U A137C,≤ -4.2
3,G70C G81A C96A C108U A120G A138C,≤ -4.2
4,C69U C87A U90A G117U,≤ -4.2
5,C72G A73C U102G C103G,≤ -4.2
6,G74C C79G U82A C93U C108U,≤ -4.2
7,A73C A106U A110C,≤ -4.2
8,G71A A91G C93U,≤ -4.2
9,C75G G92A C105G C114G U146C,≤ -4.2
10,G70C G94A,-3.61
11,C69A U90C,≤ -4.2
12,C69A U148A,-4.08
13,G70A C105A C123A,≤ -4.2
14,C72U C87A G117C G143U,≤ -4.2
15,C69U A115U C123U,-1.62
16,A73G G81A G83A C96A A119U G124C,≤ -4.2
17,G70A U144C,-3.66
18,C69G G71U G140A,≤ -4.2
19,C75A C116U,≤ -4.2
20,A73G G86A A150G,≤ -4.2
21,A73U G83U G84U A97C G100U C105A,≤ -4.2
22,A73U C76U,-1.32
23,C75A G80C C96G C99A G117A,≤ -4.2
